The values below come from the supplement of paper PMC7877785.

This data set is described as follows: self-splicing fitness, log relative to wild type (ln ratio); higher = more splicing; Tetrahymena group I intron in knt gene, E. coli kanamycin selection, DiMSum; sequences stand for … in CUCUCU…GGAGGGAAAAGUUAUCAGGCAUGCACCUGGUAGCUAGUCUUUAAACCAAUAGAUUGCAUCGGUUUAAAAGGCAAGACCGUCAAAUUGCGGGAAAGGGGUCAACAGCCGUUCAGUACCAAGUCUCAGGGGAAACUUUGAGAUGGCCUUGCAAAGGGUAUGGUAAUAAGCUGACGGACAUGGUCCUAACCACGCAGCCAAGUCCUAAGUCAACAGAUCUUCUGUUGAUAUGGAUGCAGUUCACAGACUAAAUGUCGGUCGGGGAAGAUGUAUUCUUCUCAUAAGAUAUAGUCGGACCUCUCCUUAAUGGGAGCUAGCGGAUGAAGUGAUGCAACACUGGAGCCGCUGGGAACUAAUUUGUAUGCGAAAGUAUAUUGAUUAGUUUUGGAGUACUCGUGGUCG
The essentials: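 Six replicate transformations of E. coli BL21(DE3) with a pET-22b(+) library were grown overnight at 37°C or 30°C. The library randomised all eight P1ex-region intron nucleotides, the intron lying in the knt kanamycin-resistance gene, and plates were LB agar with or without 25 μg/mL kanamycin plus 100 μg/mL carbenicillin, 50 μM IPTG and 0.2% rhamnose. Pooled colonies were amplicon-sequenced on an Illumina HiSeq 2500, and fitness is the DiMSum error-weighted combination of wild-type-normalised replicate fold changes, kanamycin versus none.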

± gives the uncertainty stated by the source.

Take CAUUAGCAAUAUUACGAAGG: the “self-splicing fitness (ln)” value (30 °C) is -1.09 ± 0.089 and the “self-splicing fitness (ln)” value (37 °C) is -0.624 ± 0.099. For AGUCAGCAAUAUUACGUACG, in that order: -0.473 ± 0.08 and -0.0481 ± 0.1.

Regarding CUAUAGCAAUAUUACGCAUA, the “self-splicing fitness (ln)” value is -3.93 ± 0.29 (30 °C) and -2.68 ± 0.24 (37 °C). As for UGUAAGCAAUAUUACGCGGA, the “self-splicing fitness (ln)” value by setting is: (30 °C) -1.91 ± 0.26; (37 °C) -1.29 ± 0.2. As for CCGAAGCAAUAUUACGCAAU, the “self-splicing fitness (ln)” value is, setting by setting: (30 °C) -3.92 ± 0.4; (37 °C) -1.94 ± 0.23. As for CUGAAGCAAUAUUACGGGGG, the “self-splicing fitness (ln)” value reads like this: (30 °C) -1.46 ± 0.14; (37 °C) -1.28 ± 0.18. Turning to AUUCAGCAAUAUUACGCACG, the “self-splicing fitness (ln)” value is -0.783 ± 0.16 (30 °C) and -0.413 ± 0.16 (37 °C). On to AGUUAGCAAUAUUACGCGCU, for which the “self-splicing fitness (ln)” value runs as follows: (30 °C) -3.13 ± 0.21; (37 °C) -2.4 ± 0.31.

Consider AAUCAGCAAUAUUACGUAGU, for which the “self-splicing fitness (ln)” value is -0.0974 ± 0.059 (30 °C) and 0.211 ± 0.074 (37 °C). As to AGGAAGCAAUAUUACGGCUA, the “self-splicing fitness (ln)” value was -0.35 ± 0.11 (30 °C) and 0.0571 ± 0.15 (37 °C).

For AUAGAGCAAUAUUACGACAA, the “self-splicing fitness (ln)” value is -1.04 ± 0.07 (30 °C) and -0.291 ± 0.092 (37 °C).

Consider AAAUAGCAAUAUUACGUUCA, for which the “self-splicing fitness (ln)” value by setting is: (30 °C) -0.751 ± 0.094; (37 °C) 0.187 ± 0.12. For the sequence GCGUAGCAAUAUUACGGACU, the “self-splicing fitness (ln)” value is, setting by setting: (30 °C) -0.176 ± 0.13; (37 °C) -0.78 ± 0.19. Consider GUUGAGCAAUAUUACGGCAA, for which the “self-splicing fitness (ln)” value was -1.78 ± 0.42 (30 °C) and -0.283 ± 0.48 (37 °C). Turning to GAACAGCAAUAUUACGGAUU, the “self-splicing fitness (ln)” value runs as follows: (30 °C) -1.29 ± 0.076; (37 °C) -0.167 ± 0.093. For CUGGAGCAAUAUUACGGAGC, in that order: -3.08 ± 0.34 and -2.38 ± 0.38. On to GGACAGCAAUAUUACGUCAC, for which the “self-splicing fitness (ln)” value reads like this: (30 °C) -2.41 ± 0.17; (37 °C) -1.56 ± 0.2. On to CAUCAGCAAUAUUACGCACC, for which the “self-splicing fitness (ln)” value by setting is: (30 °C) -3.56 ± 0.14; (37 °C) -1.61 ± 0.12. In the case of GAGCAGCAAUAUUACGAUAA, the “self-splicing fitness (ln)” value was -2.23 ± 0.29 (30 °C) and -1.76 ± 0.24 (37 °C).

As to ACCAAGCAAUAUUACGUAUA, the “self-splicing fitness (ln)” value is -3.38 ± 0.16 (30 °C) and -2.36 ± 0.12 (37 °C). On to UUUCAGCAAUAUUACGUAGU, for which the “self-splicing fitness (ln)” value by setting is: (30 °C) -3.95 ± 0.24; (37 °C) -2.63 ± 0.18.

Take CGGUAGCAAUAUUACGGUGU: the “self-splicing fitness (ln)” value by setting is: (30 °C) -3.24 ± 0.17; (37 °C) -2.04 ± 0.17. For the sequence AUGGAGCAAUAUUACGCGAG, for the setting “30 °C”, the “self-splicing fitness (ln)” value was -2.22 ± 0.3. Consider GAUUAGCAAUAUUACGCUGC, for which the “self-splicing fitness (ln)” value reads like this: (30 °C) -3.07 ± 0.24; (37 °C) -2.25 ± 0.35.

Take AUGCAGCAAUAUUACGGCUG: the “self-splicing fitness (ln)” value (30 °C) is -2.78 ± 0.15 and the “self-splicing fitness (ln)” value (37 °C) was -1.68 ± 0.23. As for UUUUAGCAAUAUUACGUACG, the “self-splicing fitness (ln)” value reads like this: (30 °C) -2.14 ± 0.37; (37 °C) -0.297 ± 0.33. For UUGGAGCAAUAUUACGGAGG, the “self-splicing fitness (ln)” value runs as follows: (30 °C) -2.92 ± 0.24; (37 °C) -2.01 ± 0.36.

Take AUCGAGCAAUAUUACGGUCA: the “self-splicing fitness (ln)” value was -2.98 ± 0.18 (30 °C) and -2.07 ± 0.18 (37 °C). Consider CCUUAGCAAUAUUACGGCGA, for which the “self-splicing fitness (ln)” value was -4.24 ± 0.39 (30 °C) and -1.96 ± 0.2 (37 °C). On to GGAGAGCAAUAUUACGUCCU, for which the “self-splicing fitness (ln)” value (30 °C) was -3.2 ± 0.24 and the “self-splicing fitness (ln)” value (37 °C) is -3.27 ± 0.43. For UUGCAGCAAUAUUACGGACU, in that order: -1.3 ± 0.18 and -1.7 ± 0.29. Consider GAAAAGCAAUAUUACGUUCU, for which the “self-splicing fitness (ln)” value by setting is: (30 °C) -3.87 ± 0.17; (37 °C) -3.19 ± 0.18. As for CGAGAGCAAUAUUACGGCUG, the “self-splicing fitness (ln)” value is -1.18 ± 0.13 (30 °C) and -1.14 ± 0.17 (37 °C). Consider UUUUAGCAAUAUUACGCUGU, for which the “self-splicing fitness (ln)” value (30 °C) was -3.26 ± 0.34 and the “self-splicing fitness (ln)” value (37 °C) is -1.98 ± 0.33. Take AUACAGCAAUAUUACGACCG: the “self-splicing fitness (ln)” value runs as follows: (30 °C) -1.22 ± 0.096; (37 °C) -0.49 ± 0.1. For CUAGAGCAAUAUUACGGCUG, in that order: 0.203 ± 0.11 and -0.255 ± 0.14. For the sequence GCCUAGCAAUAUUACGAAAU, the “self-splicing fitness (ln)” value runs as follows: (30 °C) -2.34 ± 0.12; (37 °C) -0.297 ± 0.13. For GACUAGCAAUAUUACGGCAC, the “self-splicing fitness (ln)” value reads like this: (30 °C) -0.648 ± 0.14; (37 °C) 0.581 ± 0.16.
